# Measurements from US20240294646A1.
# pKd: −log10 of the molar value.
# Key:
# FcγRIIaR [1] = target: FcγRIIaR (UniProt P12318); test: SPR (Protocol 2, Biacore 4000), antibody captured on immobilised HER2, FcγR as analyte
# [2] = target: Soluble FcγRIIb extracellular domain with C-terminal 10xHis tag (UniProt P31994); test: SPR Protocol 2; IIb selectivity relative to control v27294
# [3] = target: Soluble FcγRIIb extracellular domain with C-terminal 10xHis tag (UniProt P31994); test: SPR Protocol 2; IIb-Fold relative to control v27294
# [4] = target: Soluble FcγRIIb extracellular domain with C-terminal 10xHis tag (UniProt P31994); test: SPR Protocol 2; ratio IIb-Fold/IIaR-Fold (FcγRIIb against FcγRIIaR)
# [5] = target: Soluble FcγRIIb extracellular domain with C-terminal 10xHis tag (UniProt P31994); test: SPR Protocol 2, OAA captured on HER2 chip, receptor as analyte; KD(WT v16463)/KD(variant)
# [6] = target: Soluble FcγRIIaR extracellular domain with C-terminal 10xHis tag (UniProt P12318); test: as above
# [7] = target: Soluble FcγRIIb extracellular domain with C-terminal 10×His tag (UniProt P31994); test: SPR; ratio of IIb-Fold to IIaR-Fold (FcγRIIb against FcγRIIaR)
# [8] = target: Soluble FcγRIIb extracellular domain with C-terminal 10×His tag (UniProt P31994); test: SPR; KD ratio against wild-type v16463
# [9] = target: Soluble FcγRIIaR extracellular domain with C-terminal 10×His tag (UniProt P12318); test: SPR; KD ratio against wild-type v16463
# [10] = target: Soluble FcγRIIb extracellular domain with C-terminal 10×His tag (UniProt P31994); test: SPR, antibody captured on HER2 chip, receptor as analyte
# [11] = target: Soluble FcγRIIaR extracellular domain with C-terminal 10×His tag (UniProt P12318); test: as above
# FcγRIIb [12] = target: FcγRIIb (UniProt P31994); test: SPR; ratio of IIb-Fold to IIaR-Fold (FcγRIIb against FcγRIIaR)
# FcγRIIaR [13] = target: FcγRIIaR (UniProt P12318); test: SPR; antibody captured on immobilised HER2, soluble FcγR as analyte; fold over wild-type
# FcγRIIb [14] = target: FcγRIIb (UniProt P31994); test: as above
# C1q (human) = C1q (human) (UniProt P02745); test: ELISA; antibody coated on the plate, human C1q added; signal as % of wild-type
# FcγRIIb [15] = target: FcγRIIb (UniProt P31994); test: SPR; ratio of IIb-fold to IIaR-fold, FcγRIIaR as comparison receptor
# FcγRIIb [16] = target: FcγRIIb (UniProt P31994); test: SPR; trastuzumab FSA variant against soluble FcγRIIb; KD ratio to wild-type FSA v21653
# [17] = target: Recombinant human C1q (C1740, Sigma Aldrich) (human) (UniProt P02745); test: ELISA; antibody coated on plate, human C1q added; signal as % of wild-type
# FcγRIIaR [18] = target: FcγRIIaR (UniProt P12318); test: SPR; trastuzumab FSA variant against soluble FcγRIIaR; KD ratio to wild-type FSA v21653
# FcγRIIIaV = FcγRIIIaV (UniProt P08637); test: SPR (ProteOn XPR36), antibody captured on immobilized HER2, FcγR as analyte, equilibrium fit
# FcγRIIaR [19] = target: FcγRIIaR (UniProt P12318); test: as above
# FcγRI = FcγRI (UniProt P12314); test: as above
# FcγRIIb [20] = target: FcγRIIb (UniProt P31994); test: as above
# FcγRIIaR [21] = target: FcγRIIaR (UniProt P12318); test: SPR imaging (IBIS MX96), antibody spotted on chip, soluble receptor as analyte, kinetic fit, 25 C, pH 7.4
# FcγRIIb [22] = target: FcγRIIb (UniProt P31994); test: as above
# [23] = target: Soluble FcγRIIb extracellular domain with C-terminal 10xHis tag (UniProt P31994); test: SPR (Biacore 4000), antibody captured on immobilised HER2, receptor as analyte
# FcγRIIaH = FcγRIIaH (UniProt P12318); test: SPR (ProteOn XPR36), antibody captured on immobilized HER2, FcγR as analyte, equilibrium fit
# [24] = target: Soluble FcγRIIb extracellular domain with C-terminal 10xHis tag (UniProt P31994); test: SPR; IIb-Fold / IIaR-Fold
# [25] = target: Soluble FcγRIIb extracellular domain with C-terminal 10xHis tag (UniProt P31994); test: SPR, antibody captured on immobilised HER2, soluble receptor as analyte
# [26] = target: Soluble FcγRIIaR extracellular domain with C-terminal 10xHis tag (UniProt P12318); test: as above
# [27] = target: Soluble FcγRIIb extracellular domain with C-terminal 10xHis tag (UniProt P31994); test: SPR; fold change in affinity over WT v16463
# [28] = target: Soluble FcγRIIaR extracellular domain with C-terminal 10xHis tag (UniProt P12318); test: SPR; fold change in affinity over WT v16463
# [29] = target: Biotinylated FcγRIIb extracellular domain-Fc fusion (human IgG1 Fc with L234A_L235A_D265S) (human) (UniProt P31994); test: competition electrochemiluminescence, antibody on HER2-coated plate, biotinylated FcγRIIb-Fc; competitor FcγRIIaR-Fc at 10x
substance,measurement,setting,value
"Variant 16463, wild-type one-armed antibody (Scaffold 2: one trastuzumab Fab and heterodimeric IgG1 Fc)",pKd,FcγRIIaR [1],6.44
"Variant 26751 (A_E272W_strat2), one-armed trastuzumab antibody with heterodimeric IgG1 Fc",IIb Selectivity Improvement wrt Control,[2],0.8 fold
same,IIb-Fold wrt Control,[3],0.6 fold
same,IIb Selectivity (IIb-Fold/IIaR-Fold),[4],11.2 fold
same,IIb-fold (fold change in affinity over wild-type),[5],60.1 fold
same,IIaR-fold (fold change in affinity over wild-type),[6],5.4 fold
"Variant 16463, wild-type one-armed trastuzumab antibody with heterodimeric IgG1 Fc (Scaffold 2)",IIb Selectivity (IIb-Fold/IIaR-Fold),[7],1 fold
same,IIb-Fold,[8],1 fold
same,IIaR-fold,[9],1 fold
same,pKd,[10],5.85
same,pKd,[11],6.51
Variant 22127 (trastuzumab FSA; A: L234D_G236N_S267A; B: G236D_S239D_V266L_S267A_H268D) (antibody),IIb Selectivity (IIb-Fold/IIaR-Fold),FcγRIIb [12],12 fold
same,IIaR-fold (fold change in affinity over wild-type),FcγRIIaR [13],4 fold
same,IIb-fold (fold change in affinity over wild-type),FcγRIIb [14],49 fold
same,C1q Binding (% WT),C1q (human),215 % WT
"Variant 32295, trastuzumab full-size antibody (chain A P329I_strat2; chain B D329*I_I332L-strat1)",IIb Selectivity (IIb-Fold/IIaR-Fold),FcγRIIb [15],82 fold
same,IIb-fold (fold change in affinity over wild-type),FcγRIIb [16],103 fold
same,C1q Binding (% WT),[17],-1 % WT
same,IIaR-fold (fold change in affinity over wild-type),FcγRIIaR [18],1 fold
"Variant 31521 (trastuzumab full-size antibody, knobs-into-holes heterodimeric IgG1 Fc, no CH2 mutations; parental scaffold)",pKd,FcγRIIIaV,5.72
same,pKd,FcγRIIaR [19],5.59
same,pKd,FcγRI,10.01
same,pKd,FcγRIIb [20],5.11
"Variant 32292, trastuzumab full-size antibody (chain A L235D_strat2; chain B D329*I_I332L-strat1)",IIb Selectivity (IIb-Fold/IIaR-Fold),FcγRIIb [15],78 fold
same,IIb-fold (fold change in affinity over wild-type),FcγRIIb [16],451 fold
same,C1q Binding (% WT),[17],2 % WT
same,IIaR-fold (fold change in affinity over wild-type),FcγRIIaR [18],6 fold
"Variant 21653 (WT), anti-CD19 (4G7) full-size antibody",pKd,FcγRIIaR [21],6.14
same,pKd,FcγRIIb [22],5.66
"Variant 21653 (WT), anti-CD40 (Chi Lob 7/4) full-size antibody",pKd,FcγRIIaR [21],6.25
same,pKd,FcγRIIb [22],5.68
Variant 31190 (trastuzumab FSA; A: L234F_L235D_G236N_H268Q_A327G_A330K_P331S; B: G236D_G237L_S239D_V266L_S267A_H268D) (antibody),IIb Selectivity (IIb-Fold/IIaR-Fold),FcγRIIb [12],26 fold
same,IIaR-fold (fold change in affinity over wild-type),FcγRIIaR [13],7 fold
same,IIb-fold (fold change in affinity over wild-type),FcγRIIb [14],187 fold
same,C1q Binding (% WT),C1q (human),2 % WT
"Variant 26747 (A_E272V_strat2), one-armed trastuzumab antibody with heterodimeric IgG1 Fc",IIb Selectivity Improvement wrt Control,[2],1.1 fold
same,IIb-Fold wrt Control,[3],1 fold
same,IIb Selectivity (IIb-Fold/IIaR-Fold),[4],14.9 fold
same,IIb-fold (fold change in affinity over wild-type),[5],89.7 fold
same,IIaR-fold (fold change in affinity over wild-type),[6],6 fold
"v27362, strat3_control (A_G236N_G237A B_G236D_G237F_S239D_S267V_H268D) (antibody)",pKd,[23],6.82
"Variant 31509 (trastuzumab full-size antibody, Azymetric heterodimeric IgG1 Fc, no CH2 mutations; parental scaffold)",pKd,FcγRIIIaV,5.92
same,pKd,FcγRIIaH,5.94
same,pKd,FcγRIIaR [19],5.82
same,pKd,FcγRI,10.17
same,pKd,FcγRIIb [20],5.38
"Variant 31522 (trastuzumab full-size antibody, electrostatic steering heterodimeric IgG1 Fc, no CH2 mutations; parental scaffold)",pKd,FcγRIIIaV,5.80
same,pKd,FcγRIIaH,5.82
same,pKd,FcγRIIaR [19],5.68
same,pKd,FcγRI,10.15
same,pKd,FcγRIIb [20],5.20
Variant 31256 (trastuzumab FSA; A: L234F_G236N_H268Q_A327G_P329I_A330K_P331S; B: G236D_G237D_S239D_V266L_S267A_H268D) (antibody),IIb Selectivity (IIb-Fold/IIaR-Fold),FcγRIIb [12],34 fold
same,IIaR-fold (fold change in affinity over wild-type),FcγRIIaR [13],4 fold
same,IIb-fold (fold change in affinity over wild-type),FcγRIIb [14],121 fold
same,C1q Binding (% WT),C1q (human),3 % WT
"Variant 32293, trastuzumab full-size antibody (chain A S267A_strat2; chain B D329*I_I332L-strat1)",IIb Selectivity (IIb-Fold/IIaR-Fold),FcγRIIb [15],58 fold
same,IIb-fold (fold change in affinity over wild-type),FcγRIIb [16],323 fold
same,C1q Binding (% WT),[17],2 % WT
same,IIaR-fold (fold change in affinity over wild-type),FcγRIIaR [18],6 fold
"Variant 21653 (WT), anti-HER2 (trastuzumab) full-size antibody",pKd,FcγRIIaR [21],6.20
same,pKd,FcγRIIb [22],5.70
"Variant 16463, wild-type one-armed trastuzumab antibody (Scaffold 2)",IIb Selectivity,[24],1
same,pKd,[25],5.85
same,pKd,[26],6.51
same,IIb-Fold,[27],1 fold
same,IIaR-fold,[28],1 fold
"Variant 27362, strat3_control (A_G236N_G237A / B_G236D_G237F_S239D_S267V_H268D), one-armed trastuzumab antibody",pKd,[10],6.82
"v12, IIb-specific comparator with symmetrical E233D_G237D_P238D_H268D_P271G_A330R (Mimoto et al. 2013) (antibody)",IIb Selectivity,[24],80.5
same,pKd,[25],7.89
same,pKd,[26],6.66
same,IIb-Fold,[27],112 fold
same,IIaR-fold,[28],1.4 fold
same,ELISA (% of non-competed FcγRIIb signal in presence of 10x FcγRIIa),[29],100%
"Variant 26752 (A_E272Y_strat2), one-armed trastuzumab antibody with heterodimeric IgG1 Fc",IIb Selectivity Improvement wrt Control,[2],1.3 fold
same,IIb-Fold wrt Control,[3],0.9 fold
same,IIb Selectivity (IIb-Fold/IIaR-Fold),[4],17.5 fold
same,IIb-fold (fold change in affinity over wild-type),[5],79.8 fold
same,IIaR-fold (fold change in affinity over wild-type),[6],4.6 fold
Variant 22128 (trastuzumab FSA; A: L234F_G236N_H268Q_K274Q_A327G_A330K_P331S; B: L234F_G236D_S239D_V266L_S267A_H268D_K274Q_A327G_A330S_P331S) (antibody),IIb Selectivity (IIb-Fold/IIaR-Fold),FcγRIIb [12],9 fold
same,IIaR-fold (fold change in affinity over wild-type),FcγRIIaR [13],4 fold
same,IIb-fold (fold change in affinity over wild-type),FcγRIIb [14],33 fold
same,C1q Binding (% WT),C1q (human),3 % WT
